The results in this text go back to US20240076396A1 (Regeneron, published 2024).

Where a chain is given by its changes, count along the chain named.

Assay [1] deals with T1, hGITR.mFc (dimeric recombinant human GITR ectodomain protein, mouse Fc fusion) (human).
T1 construct: also called dimeric human GITR; dimeric GITR
T1 chain: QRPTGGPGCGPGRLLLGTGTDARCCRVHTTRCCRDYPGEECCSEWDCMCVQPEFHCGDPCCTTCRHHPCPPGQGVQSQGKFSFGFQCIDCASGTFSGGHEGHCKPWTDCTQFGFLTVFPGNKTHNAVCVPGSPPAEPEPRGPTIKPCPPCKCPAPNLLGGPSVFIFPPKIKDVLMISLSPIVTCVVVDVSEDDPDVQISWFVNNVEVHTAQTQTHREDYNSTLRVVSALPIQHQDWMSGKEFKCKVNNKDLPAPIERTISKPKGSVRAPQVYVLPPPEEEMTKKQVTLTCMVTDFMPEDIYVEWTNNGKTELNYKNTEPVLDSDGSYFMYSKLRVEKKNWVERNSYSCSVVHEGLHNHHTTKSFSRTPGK
In words: SPR Biacore 2000 25C; CHOt supernatant antibody captured on anti-human Fc; 50 nM hGITR.mFc. How it is done:
(§1) Biacore experiments for antibodies secreted in conditioned culture medium were performed as follows. Using a Biacore 2000 instrument at 25° C., antibodies were captured for 80 seconds at a flow rate of 8 uL/min on a CM5 anti-humanFc-coupled surface. Approximately 1000-2000 RU of each antibody were captured. 100 nM hGITR.mmH (soluble monomeric hGITR, SEQ ID NO: 45) or 50 nM hGITR.mFc (dimeric Macaca fasicularis GITR, SEQ ID NO: 46) were injected over this surface for 2 minutes at a flow rate of 50 uL/min. Dissociation was measured for 2 minutes. The KD and t_{1/2} were calculated by fitting the double-referenced sensorgrams to a 1:1 binding model.
In general terms: Surface plasmon resonance follows binding to a sensor surface in real time, without labels.

The target in assay [2] is T2, hGITR.mmH (soluble monomeric recombinant human GITR ectodomain protein) (human).
T2 construct: also called monomeric human GITR
T2 chain: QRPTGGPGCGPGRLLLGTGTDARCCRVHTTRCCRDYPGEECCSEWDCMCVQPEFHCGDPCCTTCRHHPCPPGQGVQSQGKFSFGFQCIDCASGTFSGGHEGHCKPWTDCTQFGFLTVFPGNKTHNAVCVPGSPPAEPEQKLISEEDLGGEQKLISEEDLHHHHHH
In words: SPR Biacore 2000 25C; CHOt supernatant antibody captured on anti-human Fc; 100 nM hGITR.mmH. How it is done: as §1

B1: CompAb1 heavy chain variant N101I (antibody, human IgG1, V domains shown)
VH: QVQLQESGPGLVKPSETLSLTCIVSGGSISGYFWNWIRQPPGKGLEWIGYIYYSGTTIYNPSLKSRFTISLDTSKNQFSLKLTSVTAADTAVYYCARESYIPSPRYFDHWGQGTLVTVSS
VL: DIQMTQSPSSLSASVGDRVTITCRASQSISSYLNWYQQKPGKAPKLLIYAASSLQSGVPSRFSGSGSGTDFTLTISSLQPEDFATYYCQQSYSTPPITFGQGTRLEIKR
notes: human IgG1 constant region; tested as CHOt supernatant; also called Sample Number 8
Regarding B1, in assay [1], the Kd (as a rule, a measure of binding affinity in units of concentration) was 27.5 nM and the t1/2 is 0.72 min. In assay [2], the Kd stood at 329 nM and the t1/2 worked out at 1.32 min.

B2: CompAb1 heavy chain variant S103F (antibody, human IgG1, V domains shown)
VH: B1 VH with I101N, S103F
VL: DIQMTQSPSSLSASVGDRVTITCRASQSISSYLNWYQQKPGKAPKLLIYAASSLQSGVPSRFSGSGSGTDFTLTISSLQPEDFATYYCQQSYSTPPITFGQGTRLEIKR
notes: human IgG1 constant region; tested as CHOt supernatant; also called Sample Number 23
For the molecule B2, the Kd in assay [1] was determined as 2.33 nM; in assay [2] it was 7.35 nM. Also, the t1/2 in assay [1] amounted to 12.8 min; in assay [2], 13.6 min.

B3: CompAb1 heavy chain variant S103G (antibody, human IgG1, V domains shown)
VH: B1 VH with I101N, S103G
VL: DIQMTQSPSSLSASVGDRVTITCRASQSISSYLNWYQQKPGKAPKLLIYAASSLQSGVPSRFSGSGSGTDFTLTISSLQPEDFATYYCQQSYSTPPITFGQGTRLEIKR
notes: human IgG1 constant region; tested as CHOt supernatant; also called Sample Number 24
For the molecule B3, in assay [1], the Kd was determined as 5.56 nM and the t1/2 stood at 7.4 min.

B4: CompAb1 heavy chain variant S103L (antibody, human IgG1, V domains shown)
VH: B1 VH with I101N, S103L
VL: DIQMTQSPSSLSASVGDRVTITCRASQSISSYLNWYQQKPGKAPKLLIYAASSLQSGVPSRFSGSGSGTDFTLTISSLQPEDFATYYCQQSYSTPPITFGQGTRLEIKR
notes: human IgG1 constant region; tested as CHOt supernatant; also called Sample Number 28
Turning to B4, the results for the Kd in assay [1] and in assay [2] were 15.9 nM and 85.2 nM, respectively. Further, the t1/2 in assay [1] was 1.66 min; in assay [2] it was 4.59 min.

B5: CompAb1 heavy chain variant N101M (antibody, human IgG1, V domains shown)
VH: B1 VH with I101M
VL: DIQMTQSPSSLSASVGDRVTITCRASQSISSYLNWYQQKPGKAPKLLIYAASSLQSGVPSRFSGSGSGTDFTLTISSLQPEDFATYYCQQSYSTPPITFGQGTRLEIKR
notes: human IgG1 constant region; tested as CHOt supernatant; also called Sample Number 11
For B5, the Kd stood at 24 nM in assay [1] and 152 nM in assay [2]. Further, the t1/2 worked out at 0.82 min in assay [1] and 1.93 min in assay [2].

B6: CompAb1 heavy chain variant N101R (antibody, human IgG1, V domains shown)
VH: B1 VH with I101R
VL: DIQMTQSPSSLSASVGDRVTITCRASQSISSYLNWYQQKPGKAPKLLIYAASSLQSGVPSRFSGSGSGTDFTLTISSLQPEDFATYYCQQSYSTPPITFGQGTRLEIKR
notes: human IgG1 constant region; tested as CHOt supernatant; also called Sample Number 14
On to B6, for which, in assay [1], the dissociation constant (Kd) came out at 29.4 nM and the t1/2 came out at 0.86 min.

B7: CompAb1 heavy chain variant N101V (antibody, human IgG1, V domains shown)
VH: B1 VH with I101V
VL: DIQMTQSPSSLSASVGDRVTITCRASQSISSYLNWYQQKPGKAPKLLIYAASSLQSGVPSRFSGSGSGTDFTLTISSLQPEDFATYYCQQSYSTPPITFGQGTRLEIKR
notes: human IgG1 constant region; tested as CHOt supernatant; also called Sample Number 17
As for B7, the results for the Kd in assay [1] and in assay [2] were 23.9 nM and 29.1 nM, respectively. The values for the t1/2 in assay [1] and in assay [2] were 0.98 min and 3.46 min, respectively.

B8: CompAb1 heavy chain variant S103A (antibody, human IgG1, V domains shown)
VH: B1 VH with I101N, S103A
VL: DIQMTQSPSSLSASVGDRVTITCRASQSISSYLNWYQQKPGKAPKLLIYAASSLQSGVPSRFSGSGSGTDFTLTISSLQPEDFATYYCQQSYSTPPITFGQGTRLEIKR
notes: human IgG1 constant region; tested as CHOt supernatant; also called Sample Number 20
In the case of B8, in assay [1], the Kd came to 0.529 nM and the t1/2 came to 50.3 min. Further, in assay [2], the Kd was found to be 108 nM and the t1/2 is 0.83 min.

B9: CompAb1 heavy chain variant S103D (antibody, human IgG1, V domains shown)
VH: B1 VH with I101N, S103D
VL: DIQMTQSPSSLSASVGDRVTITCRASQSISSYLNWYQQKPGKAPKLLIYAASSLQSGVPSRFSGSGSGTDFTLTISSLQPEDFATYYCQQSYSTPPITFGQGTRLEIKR
notes: human IgG1 constant region; tested as CHOt supernatant; also called Sample Number 21
For B9, in assay [1], the Kd was found to be 0.595 nM and the t1/2 worked out at 65 min. For the same molecule, in assay [2], the dissociation constant Kd worked out at 77.1 nM and the t1/2 was found to be 1.01 min.

B10: CompAb1 heavy chain variant N101Q (antibody, human IgG1, V domains shown)
VH: B1 VH with I101Q
VL: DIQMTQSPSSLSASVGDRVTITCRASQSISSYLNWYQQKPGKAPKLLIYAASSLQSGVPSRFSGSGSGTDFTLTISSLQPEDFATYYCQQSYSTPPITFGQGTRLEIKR
notes: human IgG1 constant region; tested as CHOt supernatant; also called Sample Number 13
With B10, in assay [1], the dissociation constant Kd was 9.98 nM and the t1/2 stood at 3.86 min. In assay [2], the Kd is 3.41 nM and the t1/2 is 16.7 min.

B11: CompAb1 heavy chain variant S103H (antibody, human IgG1, V domains shown)
VH: B1 VH with I101N, S103H
VL: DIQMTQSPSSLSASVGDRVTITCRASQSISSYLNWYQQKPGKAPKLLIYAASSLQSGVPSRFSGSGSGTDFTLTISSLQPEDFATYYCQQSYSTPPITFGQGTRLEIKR
notes: human IgG1 constant region; tested as CHOt supernatant; also called Sample Number 25
Consider B11, for which the Kd was found to be 6.68 nM in assay [1] and 12.6 nM in assay [2]. The t1/2 in assay [1] was determined as 4.63 min; in assay [2] it was 16.4 min.

B12: CompAb1 heavy chain variant S103E (antibody, human IgG1, V domains shown)
VH: B1 VH with I101N, S103E
VL: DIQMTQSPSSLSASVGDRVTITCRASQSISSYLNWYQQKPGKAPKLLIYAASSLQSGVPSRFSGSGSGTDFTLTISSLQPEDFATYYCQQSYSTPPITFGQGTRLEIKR
notes: human IgG1 constant region; tested as CHOt supernatant; also called Sample Number 22
B12: the dissociation constant Kd was 0.742 nM in assay [1] and 119 nM in assay [2]. Besides, the values for the t1/2 in assay [1] and in assay [2] were 42.4 min and 0.76 min, respectively.

B13: CompAb1 heavy chain variant S103I (antibody, human IgG1, V domains shown)
VH: B1 VH with I101N, S103I
VL: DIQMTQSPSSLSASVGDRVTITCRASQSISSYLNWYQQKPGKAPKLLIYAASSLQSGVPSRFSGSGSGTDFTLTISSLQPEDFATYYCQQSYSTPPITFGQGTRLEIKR
notes: human IgG1 constant region; tested as CHOt supernatant; also called Sample Number 26
On to B13, for which the values for the dissociation constant (Kd) in assay [1] and in assay [2] were 6.51 nM and 10.1 nM, respectively. Also, the t1/2 was found to be 4.41 min in assay [1] and 11.5 min in assay [2].

B14: CompAb1 heavy chain variant N101K (antibody, human IgG1, V domains shown)
VH: B1 VH with I101K
VL: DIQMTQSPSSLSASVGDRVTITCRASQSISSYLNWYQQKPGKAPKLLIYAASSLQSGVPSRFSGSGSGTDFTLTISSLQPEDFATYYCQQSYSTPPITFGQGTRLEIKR
notes: human IgG1 constant region; tested as CHOt supernatant; also called Sample Number 9
For B14, in assay [1], the Kd is 26.9 nM and the t1/2 came to 0.99 min. Moreover, in assay [2], the Kd is 17 nM and the t1/2 came out at 4.91 min.
